# Measured values from the supplement of paper PMC9170038.
# System: MS2 coat protein
# Assay: apparent KD of MS2 coat protein, switch ON state; designed switch direction (-1 OFF switch, 1 ON switch): -1; higher = weaker reporter binding
# Conditions: FMN input: 0 or 200 uM; Eterna round: R93 (includes R88 designs)
# Procedure, shortened: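 Illumina sequencing clusters served as templates for on-chip transcription of the designed RNA switches. SNAP-549-labelled MS2 coat protein was then titrated in twofold steps from 0.7 or 1.5 nM to 3 µM, allowing 0.8–1.5 h per step at first and 10–20 min per step later. The buffer held 100 mM Tris-HCl pH 7.5, 80 mM KCl and 4 mM MgCl2, without or with constant ligand. Apparent KD is the median per design of normalised cluster binding-curve fits.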
row,Sequence,apparent KD of MS2 coat protein
1,AAGAAACAUGAGGAUCACCCAUGUCAGGAUAUGCAAAACUGACGAAAGUCAGAAGAAAGCAGAAGGGACUAGAA [5-pair stack],29.1 nM
2,"AGUUGGCGAGGAUAUACAUGAGGAUCACCCAUGUGAAAAAAGGGCUCGAAAGAGAAAAGUAGAAGGCGCUGACA [73%, Moding Norbert Elias, 7]",24.8 nM
3,AAAAAGGAAGGAUAUACGAACAUGUCAAAAGACGUGAAGGGACAUGAGGAUCACCCAUGUAGAAGGUUCAAAAA [JL Half Open 24],38.7 nM
4,AACAUGUGAGGAUAUGUACGAAAAAAUAAAAAAAUAAAAGUACAGAAGGCACAUGAGGAUCACCCAUGUGAAAA [EX4 395: Minimal 8],176 nM
5,"AACCAACAUGAGGAUCACCCAUGUCAGGAUAUGCAAACAACAAACAACAAACAACAAAGCAGAAGGGACAACAA [63%, Olong, 1]",15.2 nM
6,GGAAAACAUGAGGAUCACCCAUGUAAGGAUAUGCAAAAGGAUAUAGAAGGAAAAAAAAGCAGAAGGUACAAAGG [salish99-ex1-21],32.5 nM
7,AGUUAGUCAGGAUAUGCGUGAAGAAUAAAAGAAAUAACAACGCAGAAGGGACAUGAGGAUCACCCAUGUAAACA [May 55],34.2 nM
8,AGCUAGUCAGGAUAUACGAAAAUGUCAGAAGACGUAAGGGAACAUGAGGAUCACCCAUGUAGAAGGGACUAGCA [Diamond 41],30.7 nM
9,AAGAAGGUAGGAUAUACUAAAGAAAUAAAAAGAAAGAAAGAACAUGAGGAUCACCCAUGUAGAAGGGCCAAGAA [Merkare],51 nM
10,AAAAACAGAGGAUAUACAAAAUUAUGACGAAAGUCAUAAAAACAUGAGGAUCACCCAUGUAGAAGGCUGGAAAA [Mat - Mod of Meechl],28.5 nM
11,AAAAAGUGAGGAUAUACAUGAGGAUCACCCAUGUGAUAAAAAAAAAGGGUGGAAGAAAGUAGAAGGCACCAAAA [Ex 3 May 49],108 nM
12,"AAAAAGUCAGGAUAUACGAAAGUGCGAAAGCACAAAAAGGGACAUGAGGAUCACCCAUGUAGAAGGGACAAGAA [Married to this design, 61% 3]",45.2 nM
13,CUCAAGUAAGGAUAUUCAAGAAAAGAAGAGAAAGAAAAGAAGAAGAAGGUACAUGAGGAUCACCCAUGUAAGAA [EteRNA is fun!],44.6 nM
14,AUCAUGUAAGGAUAUAUAAGAAAAGAAAAGAAAGAAAAGAAAUAGAAGGUACAUGAGGAUCACCCAUGUAAGAA [EteRNA is fun!],30.8 nM
15,AGCUAGAGAGGAUAUACGUGAGUGAUAAAAGUCUGAUAACUACAUGAGGAUCACCCAUGUAGAAGGCUCUAGCA [Ex2 Design 166: Sub-opt 30],69.1 nM
16,GGUUGGCGAGGAUAUACAUGAGGAUCACCCAUGUGAGAGAAAAAAGUGAGACAGAAAAGUAGAAGGCGCUGACG [salish99-ex3-24],65.8 nM
17,GAGAAGUGAGGAUAUCGAAGACAGACGAAAAGUCUGUCAAACGAGAAGGCACAUGAGGAUCACCCAUGUGGGAG [Mat - Exaclusion 4 - Eli mod - D75],81.2 nM
18,AAAAAGGGAGGAUAUACAUGAGGAUCACCCAUGUAAAAAAAAAAAAAAGGGAGGGAAGGUAGAAGGCCCAAAAA [Excls3-II],39.6 nM
19,GAAGUGUUAGGAUAUCGAUGAAUAAUAAAACAAAGGAACAUUGAGAAGGAACAUGAGGAUCACCCAUGUAUAAC [May 81],27.7 nM
20,AACCUGCUAGGAUAUACAGCAGGGAUUCGAAAACCCACGAAACAUGAGGAUCACCCAUGUAGAAGGAGUAGGGA [Teainis],20.3 nM
21,AAGGGACAUGAGGAUCACCCAUGUGAGGAUAUGCUAUGGAAAAUAAAAAUAAAACAUAGCAGAAGGCAUAAAAA [Denovo 9],60.1 nM
22,AAAAAACAUGAGGAUCACCCAUGUAAGGAUAUGCAAAAUAAAAGAAAUAAAAAGGAAAGCAGAAGGUACAUGAA [JL wbt mod 8],21.9 nM
23,AAAAAGGCAGGAUAUACAUGAGGAUCACCCAUGUAAAGAAAAGAAAGAUCCAAAGAAAGUAGAAGGGCCAAAAA [Ex3 sub 3],48.8 nM

row,Sequence,apparent KD of MS2 coat protein
1,AAAAAGCGAGGAUAUACAUAGCUAAGACAAAUAAGCAAAAAACAUGAGGAUCACCCAUGUAGAAGGCGCAAAAA [Exclusion2-01],19.6 nM
2,AAGAAACAUGAGGAUCACCCAUGUCAGGAUAUCAAAAAGAAAAGAAAAGAAAGAAGAAUGAGAAGGGACAAAGG [Meryibre Khety I],50.7 nM
3,AGAAAACAUGAGGAUCACCCAUGUCAGGAUAUCAAAAAGAAAAGAAAAGAAAGAAGAAUGAGAAGGGACAAGAA [Khasekhem(wy)],27.5 nM
4,AAAAAGGGAGGAUAUACAACACAGACAGAACAACAAACACAACAUGAGGAUCACCCAUGUAGAAGGCCCAAAAA [Default title],28.2 nM
5,AAAAAGUGAGGAUAUGCAGUGGCCUGUAGACGCAAGCACUUGUAGAAGGCACAUGAGGAUCACCCAUGUUUAAA [EX4 Malc#30],30.9 nM
6,AACUGACAUGAGGAUCACCCAUGUCAGGAUAUGCUUCAUAAAAAAAAAAAAAAAUGAUGCAGAAGGGACAUGGA [Design 29 :P Sub-opt 5],20 nM
7,AAAACUAGAGGAUAUACGUACAUGUCAAAAGACGUGAAGGGACAUGAGGAUCACCCAUGUAGAAGGCUAGAAAA [JL Stem Breaker 9],45.2 nM
8,AUCAUGUAAGGAUAUGACUACAUAAAAAAAAAAAAAUGUAGUCAGAAGGUACAUGAGGAUCACCCAUGUACAAA [Mod of Brourd],27.6 nM
9,CUUAUGUGAGGAUAUGUACAGAAAAAAAAGGGUGUAACUGUACAGAAGGCACAUGAGGAUCACCCAUGUGAAUA [EX4 380: S S Pseudoknot 5],61.9 nM
10,UAAAGGCGAGGAUAUACAUGAGGAUCACCCAUGUGAAUAAAUAAGAAAAUAAAAGAAAGUAGAAGGCGCAAGAA [LROPPY Exclusion 3 - v03_deltaG=1.9 break up As mixed],44.1 nM
11,AAAAAGUGAGGAUAUACAUGAGGAUCACCCAUGUGUAUAAAAAAUUACACAAAAGAAAGUAGAAGGCACUAAAG [Mat - Exclusion 3 - Mayanna mod - D112],17 nM
12,AAGAAGUCAGGAUAUACAUGAGGAUCACCCAUGUAAAAGAAAGAAAAGGGAAAGAAAAGUAGAAGGGACAAGAA [Menkheperre Thutmose III],22.5 nM
13,GGGUCACAUGAGGAUCACCCAUGUAAGGAUAUGCUAGGGAUGGAAACCAGGCCGCAACGCAGAAGGUACUAAAG [Janelle Amethyst 18 Mod 13 - Jieux - Exclusion 1],50.7 nM
14,AAAAGGUCAGGAUAUGCCCGCCGGGUGGGAAGGCCGGGUGGGUAGAAGGGACAUGAGGAUCACCCAUGUAAAAA [Opal 42],52.4 nM
15,AAAAAAGGAGGAUAUACGAACAUGUCGAAAGACGUGAAGGGACAUGAGGAUCACCCAUGUAGAAGGCUUAAAAA [Mat - Exclusion 2 - JL mod - D69],37 nM
16,AACUAGCUAGGAUAUACAUGAGGAUCACCCAUGUAAAAAAAAAAAAAAAGAUAUAUAUGUAGAAGGAGCUAGUA [Mod of Brourd],30.5 nM
17,GGAAAGCGAGGAUAUACAUGAGGAUCACCCAUGUAAAAGAAAAGAAAAGAAAGAAAAUGUAGAAGGCGCAAAAA [Exclusion 3 plus],53.5 nM
18,AACAAGUGAGGAUAUUGGAAAAGUAAAUAAGUAAAACAAAACAAGAAGGCACAUGAGGAUCACCCAUGUAAAUA [JR_Exc004_Sub017],21.9 nM
19,AAGAAACAUGAGGAUCACCCAUGUCAGGAUAUACAAAAGAAAAGAAAAGAAAGAAGAAGUAGAAGGGACAAAGG [Neitiqerty Siptah],38.3 nM
20,AUAGUACAUGAGGAUCACCCAUGUCAGGAUAUUCGAUAUGAAAAAAAAAAAAAGUUAAGGAGAAGGGACUAUAA [EX1 Malc#13],26.1 nM
21,UAAAGGAUAGGAUAUACAUGAGGAUCACCCAUGUGAAUAAAUAAGAAAAUAAAAGAAAGUAGAAGGAUCAAGAA [LROPPY Exclusion 3 - v04_deltaG=3.9 break up As mixed],25.2 nM
22,UUAACACAUGAGGAUCACCCAUGUUAGGAUAUUGUGGUAGGAACAACUGGGAAACGCACAAGAAGGGACACACA [EX1 Malc#18 Mod 18 - Jieux - Exclusion 1],29.2 nM
